Test results from patent US20080317723A1, “LYMPHATIC ENDOTHELIAL CELLS MATERIALS AND METHODS” (VEGENICS LIMITED, priority 2001, published 2008).

Assays:
Type in all cases: cell-based, human
[1] = test system: VEGFR-3 expressing lymphatic endothelial cells; assay: Serum starvation-induced apoptosis, cytoplasmic mono- and oligonucleosomes, isolated VEGFR-3 positive cells; details: for cell survival during serum starvation: VEGFR-3 expressing cells, FIG. 2B
Excerpt: FIG. 2A-FIG. 2B. VEGFR-2 and VEGFR-3, but not VEGFR-1 activating ligands inhibit apoptosis of serum-deprived HMVE cells. Measurement of the cytoplasmic histone-associated DNA fragments (mono- and oligonucleosomes) in serum-starved HMVE cells consisting of two cell populations of blood vascular and lymphatic endothelial cells (FIG. 2A) or in the isolated cell populations after magnetic cell sorting using VEGFR-3 antibodies (FIG. 2B). The enrichment factor of cytoplasmic oligonucleosomes in the apoptotic cells grown for 24 h in serum-free medium (BSA) was chosen as 100 (%). Data represent mean values from three independent experiments (mean±s.d.). […] Isolation of lymphatic and blood vascular endothelial cells. […] Analysis of endothelial cell apoptosis. For the apoptosis assay, 70,000 cells per well were seeded into 24-well plates. Treatments were done in duplicates and apoptosis was detected by measuring cytoplasmic histone-associated DNA fragments using the death detection ELISA PLUS kit (Roche, Indianapolis, Ind.). […] Annexin-V-FLUOS (Roche, Indianapolis, Ind.) was used to detect phosphatidylserine on the apoptotic cells by fluorescence microscopy according to the instructions of the manufacturer. The simultaneous staining with propidium iodide (1 μg/ml) was used for discriminating possible necrotic cells.

[2] = test system: HMVE cells; assay: Annexin-V staining of serum-starved HMVE cells with podoplanin co-staining; details: 72 hours serum-free medium; podoplanin positive vs negative cells, FIG. 3
Method: FIG. 3. Quantitation of the Annexin-V positive cells (% of adherent cells) in the podoplanin positive and negative cell populations after 72 hours of serum starvation. Data represent mean values from five counted areas (×400) (mean±s.d.).
Analysis of endothelial cell apoptosis. For the apoptosis assay, 70,000 cells per well were seeded into 24-well plates. Treatments were done in duplicates and apoptosis was detected by measuring cytoplasmic histone-associated DNA fragments using the death detection ELISA PLUS kit (Roche, Indianapolis, Ind.). The following ranges of growth factor concentrations were tested: bFGF 10-20 ng/ml, PlGF-1 50-1000 ng/ml, VEGF 10-50 ng/ml, VEGF-C 50-1000 ng/ml, VEGF-D 50-1000 ng/ml, VEGF-C156S 50-1000 ng/ml and VEGF-E 50-1000 ng/ml. Annexin-V-FLUOS (Roche, Indianapolis, Ind.) was used to detect phosphatidylserine on the apoptotic cells by fluorescence microscopy according to the instructions of the manufacturer. The simultaneous staining with propidium iodide (1 μg/ml) was used for discriminating possible necrotic cells.
Annexin-V staining of the HMVE cells was performed after 72 hours of culture in serum-free medium alone (BSA) or with stimulation of VEGF or VEGF-C. Simultaneous staining using antibodies against podoplanin was used to distinguish lymphatic and blood vascular endothelial cells. […]

[3] = test system: Akt; assay: Akt phosphorylation in HMVE cells, Western blot; details: for Akt phosphorylation at Ser473 on growth factor stimulation: HMVE cells; for time of maximal (peak) Akt phosphorylation after exposure: HMVEC, FIG. 4
Method: (§1) Western blot analysis. Endothelial cells were cultured on 35 mm dishes to near confluence, starved for 24 h in serum free medium and stimulated as indicated. Wortmannin ([…]), LY294002 ([…]), PD98059 (10-25 μM) or GF109203X (2.5-5 μM) were added 1-3 h before stimulation, where indicated. DMSO, into which the inhibitors were dissolved, was used as a control. After the stimulation, the cells were lysed in lysis buffer (50 mM HEPES, pH 7.5, 150 mM NaCl, 10 mM EDTA, 100 mM NaF, 1% TritonX-100 supplemented with 2 mM Na3VO4, 0.5 mM PMSF, 100 U/ml approtinin and 10 μg/ml leupeptin). Clarified lysates were separated by SDS-PAGE, transferred to nitrocellulose and immunoblotted using the phosphospecific antibodies for Akt-Ser473, Akt-Thr308, p42/44 MAPK-Thr202/Tyr204 or CREB-Ser133. The bound antibodies were detected using horseradish peroxidase conjugated secondary antibodies and enhanced chemiluminescence detection system. The blots were stripped and reprobed with antibodies against Akt, MAPK or CREB for quantification by reading the optical densities of the signals with Multi-Analyst 2.0.1 program (Bio-Rad).
As discussed in the background, a major signal transduction pathway by which growth factor receptors can promote cell survival employs the PI-3-kinase and its downstream target, the serine-threonine kinase Akt. The effect of the different VEGFs on Akt was analyzed by assessing Akt phosphorylation in serine 473 and threonine 308 using phosphospecific antibodies.

[4] = test system: p42/p44 MAPK; assay: p42/p44 MAPK Thr202/Tyr204 phosphorylation in HMVE cells, Western blot
Method: as §1
The p42/p44 MAPK activation was detected by Western blotting using phospho-Thr202/Tyr204-MAPK specific antibodies and CREB phosphorylation using phospho-Ser133 specific antibodies. The growth factor concentrations used were: VEGF 10 ng/ml, VEGF-C 100 ng/ml and VEGF-C156S 500 ng/ml. […] Effects of inhibition of protein kinase C by GF109203X, MEK1 by PD98059 and PI-3 kinase by LY294002 on p42/p44 MAPK Thr202/Tyr204 phosphorylation, CREB Ser133 phosphorylation and Akt Ser473 phosphorylation in HMVE cells. The growth factor concentrations used were: VEGF 1 ng/ml, VEGF-C 10 ng/ml and VEGF-C156S 500 ng/ml

[5] = serum-deprived lymphatic endothelial cells

| Molecule | cell survival during serum starvation [1] | Annexin-V positive cells / survival [2] | Akt phosphorylation at Ser473 on growth factor stimulation [3] | time of maximal (peak) Akt phosphorylation after exposure [3] | duration of MAPK activation, in words [4] | p42/p44 MAPK activation (phosphorylation) [4] | accumulation of oligo- and mononucleosomes [1, 5] | concentration at which the maximum effect was achieved (inhibition of oligo- and mononucleosome accumulation) [1, 5] |
| --- | --- | --- | --- | --- | --- | --- | --- | --- |
| VEGF | promoted cell survival | strongly decreased the number of cells displaying Annexin-V positivity | phosphorylated at Ser473 | 20 to 30 min | more transient than that induced by VEGF-C | significantly stronger | – | – |
| VEGF-C156S: VEGFR-3 specific mutant form of VEGF-C, cysteine 156 changed into serine; recombinant human (Thr103 to Ile225) (protein, UniProt P49767 103-225, looked up, variant C156S) TEETIKFAAAHYNTEILKSIDNEWRKTQCMPREVCIDVGKEFGVATNTFFKPPSVSVYRCGGCCNSEGLQCMNTSTSYLSKTLFEITVPLSQGPKPVTISFANHTSCRCMSKLDVYRQVHSII | induced the survival of only the VEGFR-3 positive cells | increased the survival of mainly the lymphatic endothelial cells | phosphorylated at Ser473 | 30 to 40 min | – | MAPK activation in HMVE cells was detected | inhibited dose-dependently | 500 ng/mL |
